In patent US20020076800:

Molecular target: T1, Human α2Macroglobulin, P01023
T1 chain: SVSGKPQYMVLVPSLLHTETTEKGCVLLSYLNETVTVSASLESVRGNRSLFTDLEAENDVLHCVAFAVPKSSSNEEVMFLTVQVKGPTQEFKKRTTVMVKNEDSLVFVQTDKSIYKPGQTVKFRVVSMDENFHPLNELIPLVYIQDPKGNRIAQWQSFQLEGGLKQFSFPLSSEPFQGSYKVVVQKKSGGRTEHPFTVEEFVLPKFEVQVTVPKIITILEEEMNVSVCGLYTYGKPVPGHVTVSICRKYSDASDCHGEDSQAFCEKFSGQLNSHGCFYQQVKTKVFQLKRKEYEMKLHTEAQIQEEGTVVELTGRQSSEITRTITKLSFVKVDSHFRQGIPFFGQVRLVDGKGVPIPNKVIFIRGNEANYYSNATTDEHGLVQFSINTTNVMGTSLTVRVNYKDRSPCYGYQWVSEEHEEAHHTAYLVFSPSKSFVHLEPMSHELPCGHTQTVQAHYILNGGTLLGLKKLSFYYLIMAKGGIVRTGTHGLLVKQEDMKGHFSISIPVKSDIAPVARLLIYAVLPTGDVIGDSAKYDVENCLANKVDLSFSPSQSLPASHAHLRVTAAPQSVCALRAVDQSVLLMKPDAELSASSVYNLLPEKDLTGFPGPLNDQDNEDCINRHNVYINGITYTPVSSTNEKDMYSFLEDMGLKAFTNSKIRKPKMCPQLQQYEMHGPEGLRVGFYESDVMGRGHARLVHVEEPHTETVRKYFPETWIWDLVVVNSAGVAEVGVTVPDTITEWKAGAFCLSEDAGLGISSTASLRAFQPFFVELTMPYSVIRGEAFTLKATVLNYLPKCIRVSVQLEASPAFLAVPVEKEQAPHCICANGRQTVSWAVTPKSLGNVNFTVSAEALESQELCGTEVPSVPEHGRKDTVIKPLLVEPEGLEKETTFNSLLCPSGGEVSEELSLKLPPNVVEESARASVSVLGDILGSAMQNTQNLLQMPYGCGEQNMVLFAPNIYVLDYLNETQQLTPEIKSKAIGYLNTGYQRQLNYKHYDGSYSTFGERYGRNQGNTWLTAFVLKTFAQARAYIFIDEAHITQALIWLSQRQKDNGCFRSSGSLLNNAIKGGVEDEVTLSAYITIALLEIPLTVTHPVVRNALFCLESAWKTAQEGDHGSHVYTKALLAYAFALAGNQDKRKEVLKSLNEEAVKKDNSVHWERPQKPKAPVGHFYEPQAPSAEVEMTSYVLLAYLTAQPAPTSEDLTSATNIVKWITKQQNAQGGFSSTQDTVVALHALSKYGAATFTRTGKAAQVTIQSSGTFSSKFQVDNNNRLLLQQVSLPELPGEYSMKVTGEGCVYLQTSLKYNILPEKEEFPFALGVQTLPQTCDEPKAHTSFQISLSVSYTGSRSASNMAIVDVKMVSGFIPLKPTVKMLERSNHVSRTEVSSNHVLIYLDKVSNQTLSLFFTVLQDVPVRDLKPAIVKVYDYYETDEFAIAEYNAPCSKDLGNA

B1: HipHum 35 construct no.2 (recombinant HH35 protein, catalytic domain only, with a six histidine tag at the amino terminal) (protein)
chain: HHHHHHRRSPRAPLSLSRRGWQPRGYPDGGAAQAFSKRTLSWRLLGEALSSQLSVADQRRIVALAFRMWSEVTPLDFREDLAAPGAAVDIKLGFGRGRHLGCPRAFDGSGQEFAHAWRLGDIHFDDDEHFTPPTSDTGISLLKVAVHEIGHVLGLPHTYRTGSIMQPNYIPQEPAFELDWSDRKAIQKLY
  α2Macroglobulin trapping (protein gel), evidence for protease activity: αmacroglobulin capture by Hiphum 35, demonstrating that Hiphum 35 has protease activity
